Experimental data: patent US20240034762A1 (YALE UNIVERSITY, published 2024)

T1: full-length human α-Klotho with a C-terminal HA-tag on HEK293 cells stably co-expressing FGFR1c (human, UniProt Q9UEF7 34-1012)
T1 sequence: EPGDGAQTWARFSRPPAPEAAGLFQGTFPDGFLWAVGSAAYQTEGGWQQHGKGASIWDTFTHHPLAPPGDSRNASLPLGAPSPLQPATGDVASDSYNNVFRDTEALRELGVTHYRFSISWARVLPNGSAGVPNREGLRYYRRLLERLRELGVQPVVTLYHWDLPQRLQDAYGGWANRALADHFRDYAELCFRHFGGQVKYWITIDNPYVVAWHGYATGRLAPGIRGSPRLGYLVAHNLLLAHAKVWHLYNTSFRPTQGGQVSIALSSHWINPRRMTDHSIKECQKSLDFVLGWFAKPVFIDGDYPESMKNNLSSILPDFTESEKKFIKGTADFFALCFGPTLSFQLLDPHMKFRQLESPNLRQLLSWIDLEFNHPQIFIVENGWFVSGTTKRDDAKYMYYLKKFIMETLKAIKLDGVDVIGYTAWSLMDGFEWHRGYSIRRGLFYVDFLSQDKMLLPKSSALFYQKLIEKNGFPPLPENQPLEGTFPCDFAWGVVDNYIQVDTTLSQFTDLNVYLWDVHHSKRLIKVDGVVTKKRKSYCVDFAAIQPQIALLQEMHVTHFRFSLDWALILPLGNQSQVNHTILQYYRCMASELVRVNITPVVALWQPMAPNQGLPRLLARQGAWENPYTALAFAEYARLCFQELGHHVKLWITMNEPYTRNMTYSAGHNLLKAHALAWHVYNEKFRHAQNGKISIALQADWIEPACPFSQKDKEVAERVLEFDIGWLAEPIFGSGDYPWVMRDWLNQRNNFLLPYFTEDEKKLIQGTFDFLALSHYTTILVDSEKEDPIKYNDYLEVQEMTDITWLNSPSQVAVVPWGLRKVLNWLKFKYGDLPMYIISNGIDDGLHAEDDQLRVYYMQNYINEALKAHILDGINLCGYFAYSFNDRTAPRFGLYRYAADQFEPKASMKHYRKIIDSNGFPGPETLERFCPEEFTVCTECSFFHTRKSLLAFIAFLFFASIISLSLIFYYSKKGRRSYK

T2: soluble extracellular domain of human α-Klotho (aa 1-980) fused to a 6xHis tag (human, UniProt Q9UEF7 34-980)
T2 construct: Secreted from HEK293 EBNA cells; also called sKLA; soluble α-Klotho
T2 sequence: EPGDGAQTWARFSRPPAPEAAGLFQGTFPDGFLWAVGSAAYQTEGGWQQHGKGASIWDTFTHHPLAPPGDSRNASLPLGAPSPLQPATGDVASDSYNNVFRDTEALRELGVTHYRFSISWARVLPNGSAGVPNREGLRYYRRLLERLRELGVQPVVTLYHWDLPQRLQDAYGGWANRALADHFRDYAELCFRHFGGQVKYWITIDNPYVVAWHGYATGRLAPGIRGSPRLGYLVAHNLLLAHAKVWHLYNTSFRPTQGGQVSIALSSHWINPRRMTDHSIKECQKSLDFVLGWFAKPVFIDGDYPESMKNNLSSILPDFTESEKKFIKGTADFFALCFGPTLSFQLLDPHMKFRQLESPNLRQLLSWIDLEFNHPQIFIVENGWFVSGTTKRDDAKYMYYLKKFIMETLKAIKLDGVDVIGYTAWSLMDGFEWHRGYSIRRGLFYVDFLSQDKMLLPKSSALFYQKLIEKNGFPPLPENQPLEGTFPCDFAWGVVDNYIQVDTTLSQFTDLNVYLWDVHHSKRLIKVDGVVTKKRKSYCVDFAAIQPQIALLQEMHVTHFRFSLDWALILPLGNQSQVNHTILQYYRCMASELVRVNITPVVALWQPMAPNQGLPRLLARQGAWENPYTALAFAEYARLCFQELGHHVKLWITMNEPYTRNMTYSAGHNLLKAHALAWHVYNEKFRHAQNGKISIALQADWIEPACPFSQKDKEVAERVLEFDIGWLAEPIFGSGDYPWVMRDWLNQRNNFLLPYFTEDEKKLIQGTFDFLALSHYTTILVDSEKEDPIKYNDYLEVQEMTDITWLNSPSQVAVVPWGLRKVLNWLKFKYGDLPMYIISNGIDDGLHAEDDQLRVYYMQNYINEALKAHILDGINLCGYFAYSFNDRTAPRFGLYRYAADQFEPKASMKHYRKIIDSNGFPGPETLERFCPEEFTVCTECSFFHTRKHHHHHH


Key:
[1] = biological target: T1, full-length human α-Klotho with a …; assay: cell-based or functional assay
[2] = biological target: T2, soluble extracellular domain of human …; assay: BLI, FGF23 variant on the sensor, sKLA as analyte

Row | Binder | activation of MAPK response in HEK293 cells co-expressing FGFR1c and α-Klotho; ligand concentration at saturation [1] | binding result [2]
1 | human FGF23-R2 (aa 25-179 fused to aa 212-243) (ligand) YPNASPLLGSSWGGLIHLYTATARNSYHLQIHKNGHVDGAPHQTIYSALMIRSEDAGFVVITGVMSRRYLCMDFRGNIFGSHYFDPENCRFQHQTLENGYDVYHSPQYHFLVSLGAAKAAFLPGMNPPPYSQFLSRRNEIPLIHFNTPIPRQHTQSAEDNSPMASDPLGVVRGGRVNTHAGGTGPEG | 0.1 nM | –
2 | human FGF23 D188A/D222A double mutant (ligand, also called D188A/D222A double mutations) DYKDDDDKYPNASPLLGSSWGGLIHLYTATARNSYHLQIHKNGHVDGAPHQTIYSALMIRSEDAGFVVITGVMSRRYLCMDFRGNIFGSHYFDPENCRFQHQTLENGYDVYHSPQYHFLVSLGAAKAAFLPGMNPPPYSQFLSRRNEIPLIHFNTPIPRQHTQSAEDDSERAPLNVLKPRARMTPAPASCSQELPSAEDNSPMASAPLGVVRGGRVNTHAGGTGPEGCRPFAKFI | – | no binding (tested: sKLA 6.25 nM to 200 nM)
3 | human FGF23-R1 (aa 25-205) expressed in E. coli (ligand) YPNASPLLGSSWGGLIHLYTATARNSYHLQIHKNGHVDGAPHQTIYSALMIRSEDAGFVVITGVMSRRYLCMDFRGNIFGSHYFDPENCRFQHQTLENGYDVYHSPQYHFLVSLGAAKAAFLPGMNPPPYSQFLSRRNEIPLIHFNTPIPRQHTQSAEDDSERDPLNVLKPRARMTPAPAS | 0.1 nM | –
